Target: human CD303 antigen (human) (UniProt Q8WTT0)
Assay: cell-based or functional assay

Chain of human CD303 antigen (human) (Q8WTT0 whole entry): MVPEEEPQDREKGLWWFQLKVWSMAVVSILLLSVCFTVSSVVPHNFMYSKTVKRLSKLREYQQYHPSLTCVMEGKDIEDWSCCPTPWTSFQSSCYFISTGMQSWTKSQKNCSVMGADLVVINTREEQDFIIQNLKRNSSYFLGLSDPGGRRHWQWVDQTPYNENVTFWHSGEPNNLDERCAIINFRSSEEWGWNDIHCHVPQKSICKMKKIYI

- EC50 (ng/mL), ADCC activity via CD16a: 1.68 ng/mL
- Emax (% lysis), ADCC activity via CD16a: 29.3 % lysis
B1: humanized anti-CD303 antibody BIIB059 (antibody, INN chains, looked up, V domains shown)
VH: DVQLVESGGGLVKPGGSLRLSCAASGFTFSTYTMSWVRQAPGKGLEWVATISPGDSFGYYYPDSVQGRFTISRDNAKNSLYLQMNSLRAEDTAVYYCTRDIYYNYGAWFAYWGQGTLVTVSS
VL: DIQLTQSPSSLSASVGDRVTITCKASQSVDYDGDSYMNWYQQKPGKAPKLLIYAASTLESGVPSRFSGSGSGTDFTLTISSLQPEDFATYYCQQANEDPRTFGQGTKVEIK
